Experimental data from paper PMC12654582.
pKd: −log10 of the molar value. Like-named read-outs stand apart in the source and are kept apart here.

Legend:
[1] = test system: PmrA I13M (Acinetobacter baumannii ATCC 19606); assay: fluorescence anisotropy
[2] = test system: PmrA M12I (Acinetobacter baumannii ATCC 19606); assay: fluorescence anisotropy
[3] = test system: PmrA M12I (Acinetobacter baumannii ATCC 19606); assay: fluorescence anisotropy; remark: listed apart in the source
[4] = test system: PmrA I13M (Acinetobacter baumannii ATCC 19606); assay: fluorescence anisotropy; remark: listed apart in the source
[5] = target: phosphorylated PmrA D10N (Acinetobacter baumannii (strain ATCC 19606)); assay: native gel or EMSA; Native PAGE after reaction of 40 uM PmrA with 20 uM PmrB and ATP (phosphorylated PmrA); 14% Tris-glycine gel, 4 C
[6] = target: phosphorylated PmrA G54E (Acinetobacter baumannii (strain ATCC 19606)); assay: as above
[7] = target: phosphorylated PmrA I13M (Acinetobacter baumannii (strain ATCC 19606)); assay: as above
[8] = target: phosphorylated PmrA M12I (Acinetobacter baumannii (strain ATCC 19606)); assay: as above
[9] = target: phosphorylated PmrA S119T (Acinetobacter baumannii (strain ATCC 19606)); assay: as above
[10] = target: phosphorylated WT PmrA (Acinetobacter baumannii (strain ATCC 19606)); assay: as above

AbpmrC_30mer FAM
pKd [1]: 4.76 | pKd [2]: 4.68 | pKd [3]: 7.37 | pKd [4]: 7.29

phosphorylated PmrA D10N (natural protein)
stoichiometry N [5]: 2

phosphorylated PmrA G54E (natural protein)
stoichiometry N [6]: 2

phosphorylated PmrA I13M (natural protein)
stoichiometry N [7]: 2

phosphorylated PmrA M12I (natural protein)
stoichiometry N [8]: 2

phosphorylated PmrA S119T (natural protein)
stoichiometry N [9]: 2

phosphorylated WT PmrA (natural protein)
stoichiometry N [10]: 2
